Source: US20140287419A1, “Compositions Having Dicamba Decarboxylase Activity and Methods of Use” (priority 2013, published 2014)
Numbering of substitutions follows the chain as printed.

B1: 111 (protein)
chain: MAQGKVALEEHFAIPETLQDSMGFVPGDYWKELMHRLLDIQDTRLKLMDAHGIETMILSLNAPAVQAIPDRRKAIEIARRANDVLAEECAKRPDRFLAFAALPLQDPDAATEELQRCVNDLGFVGALVNGFSQEGDGQTPLYYDLPQYRPFWGEVEKLDVPFYLHPRNPLPQDSRIYDGHPWLLGPTWAFAQETAVHALRLMASGLFDEHPRLNIILGHMGEGLPYMMWRIDHRMAWIKLPPRYPAKRRFMDYFNENFHITTSGNFRTQTLIDAILEIGADRILFSTDWPFENIDHASDWFNATSIAEADRVKIGRTNARRLFKLDGA
modifications: Dicamba decarboxylase variant clone DC.4.112
B2: 112 (protein)
chain: B1 chain with M22A, M34V, M235V, I238V
modifications: Dicamba decarboxylase variant clone DC.4.113
B3: 113 (protein)
chain: B1 chain with M22A, W30L, M34F, M235V, I238V
modifications: Dicamba decarboxylase variant clone DC.4.114
B4: 114 (protein)
chain: B1 chain with M22A, F24A, M34Q, M235V, I238V
modifications: Dicamba decarboxylase variant clone DC.4.116
B5: 115 (protein)
chain: MAQGKVALEEHFAIPDTLTTYTTSGDYEKELKHRLLDIQDTRLKLMDAHGIETMILSLNAPGVQAIPDRRKAIEIARRANDVLAEECAKRPDRFLAFAALPLQDPDAATEELQRCVNDLGFVGALVNGFSQEGDGQTPLYYDLPQYRPFWGEVEKLDVPFYLHPRNPLPQDSRIYDGHPWLLGPTWAFAQETAVHALRLMASGLFDEHPRLNIILGHMGEGLPYMMWRIDHRNAWVKTPPRYPAKRRFMDYFNENFHITTSGNFRTQTLIDAILEIGADRILFSTDWPFENIDHASDWFNATSIAEADRVKIGRTNARRLFKLDGA
modifications: Dicamba decarboxylase variant clone DC.4.161
B6: 116 (protein)
chain: MAQGKVALEEHFAIPETLQDAAGFVPGDYWKELQHRLLDIQDRRVRLMDEHGIETMILSLNAPAVQAIADSTRANETARRANDFLAEQVAKQPTRFRGFAALPMQDPELAARELERCVKELGFVGALVNGFSQDNRSAVPLYYDMAQYWPFWETVQALDVPFYLHPRNPLPSDARIYDGHAWLLGPTWAFGQETAVHALRLMGSGLFDKYPALKIILGHMGEGLPYSMWRIDHRNAWIKTTPKYPAKRKIVDYFNENFYLTTSGNFRTQTLIDAILEIGADRILFSTDWPFENIDHAADWFENTSISEADRKKIGWGNAQNLFKLNR
modifications: Dicamba decarboxylase variant clone DC.30.007
B7: 110 (protein)
chain: B1 chain with I238V
modifications: Dicamba decarboxylase variant clone DC.4.111
B8: SEQ ID NO:114: Design variant of SEQ ID NO: 1 (protein)
chain: B1 chain with M22A, F24A, M34Q, M235V, I238V
modifications: Dicamba decarboxylase variant clone DC.4.116
B9: SEQ ID NO:32: o-pyrocatechuate decarboxylase, Streptomyces violaceusniger Tu 4113 (protein)
chain: MARIIAIEEHFLDLDIARASRPEAERLSPAFAAAYGAGQGYNYSPAPEVLLDLEEGRVADMDAHGISMQVLSSLSTQQLPADVAVELVRKVNDRAAAAVAARPDRFAAFAALPTTVPEAAADELDRAVGELGFVGSMINGRTGDAFLDAPRFDAVLRRSAELRVPVYLHPGVPPVETSRSNYEGGLDPIVTARLQTSAWGWHVETGIHFLHLVLAGVFDRYPDLQVILGHWGEMVPFFLERIEEALPQQITHLDRPVGAYFRENAHITPSGMFSQAQLQFCVETVGIERIMFSVDYPFLGNDGAEAFLRQANLPPLATEKIAHLNAERLLALPS
modifications: Streptomyces violaceusniger
B10: SEQ ID NO:108: hypothetical protein SAV2580, Staphylococcus aureus subsp. aureus Mu50 (protein, listed as Staphylococcus aureus)
chain: MAKSITFEEHYVIEDIQKETMNAISADPKGVPMKVMLEGLEKKTGFTNADELSHHDERIQFMNNQDVQIQVLSYGNGSPSNLVGQKAIELCQKANDQLANYIAQYPNRFVGFATLPINEPEAAAREFERCINDLGFKGALIMGRAQDGFLDQDKYDIIFKTAENLDVPIYLHPAPVNSDIYQSYYKGNYPEVTAATFACFGYGWHIDVGIHAIHLVLSGIFDRYPKLNMIIGHWGEFIPFFLERMDEALFAEHLNHSVSYYFKNSFYITPSGMLTKPQFDLVKKEVGIDRILYAADYPYIEPEKLGVFLDELGLTDEEKEKISYTNGAKLLGLSSNN

Assay: Dicamba decarboxylation activity of computationally designed protein variants
Conditions: Table 5, designed variants with improved activity
In the case of B1, the “Dicamba Decarboxylation activity” value is reported as “Yes”.
In the case of B2, the “Dicamba Decarboxylation activity” value is reported as “Yes”.
For B3, the “Dicamba Decarboxylation activity” value was “Yes”.
In the case of B4, the “Dicamba Decarboxylation activity” value is reported as “Yes”.
For B5, the “Dicamba Decarboxylation activity” value was “Yes”.
For B6, the “Dicamba Decarboxylation activity” value was “Yes”.
For B7, the “Dicamba Decarboxylation activity” value was “Yes”.

Same assay, conditions: native protein or designed variant versus parent
In the case of B8, the “Dicamba Decarboxylase Activity” value is reported as “displays an increase in dicamba decarboxylase activity”.

Same assay, conditions: parent SEQ ID NO:1 or SEQ ID NO:41 listed as 100
For B1, the “Percent Activity Improvement Over Parent (%)” value was 237%.
With B2 the “Percent Activity Improvement Over Parent (%)” value was 219%.
For B3, the “Percent Activity Improvement Over Parent (%)” value was 224%.
In the case of B4, the “Percent Activity Improvement Over Parent (%)” value is reported as 221%.
With B5 the “Percent Activity Improvement Over Parent (%)” value was 202%.
For B6, the “Percent Activity Improvement Over Parent (%)” value was 220%.
With B7 the “Percent Activity Improvement Over Parent (%)” value was 277%.

Assay: 14C assay with purified protein (14CO2 captured on Ca(OH)2 filter paper)
Format: biochemical
Conditions: [14C]-carboxyl-labeled dicamba
In the case of B9, the CO2 product is reported as “detected”.
With B10 the CO2 product was “detected”.
For B8, the CO2 product was “detected”.

Assay: Detection of 2,5-DCP product by GC/MS
Format: biochemical
Conditions: purified protein
Description: The decarboxylated and demethylated product of dicamba, 2,5-dichloro phenol or 2,5-DCP (FIG. 1E) is measured using a GC/MS analytical procedure with either liquid injection after liquid/liquid extraction using toluene as the extraction solvent or gas injection using head space method. The head space sample analysis is carried out on an Agilent GC/MS system with a 6890A GC, a 5973N MSD and a CTC CombiPAL auto-sampler or with a 7890A GC, a 5975C MSD and an Agilent GC Sampler 80 auto-sampler with Phenomenex ZB-MultiResidue-1 column (30 m length, 0.25 mm diameter, 0.25 um film) or equivalent. GC/MS parameters are: GC inlet temperature, 200° C.; Carry gas, helium in constant flow mode (1.2 mL/min); Oven temperature program, 70° C. for 1 min and then ramp to 275° C. at 40° C./min. […] The reaction vial is transferred to a agitator for incubation at 90° C. for 4 min at 500 rpm. With a syringe preheated at 110° C., 1000 uL of head space is injected with sample fill speed at 100 uL/sec. A 2-mm diameter liner is used in sample inlet. The MS data acquisition is done in SIM (selected ion monitoring) mode. The positive ion at M/Z 162 for the molecular ion of 2,-5-DCP is monitored at retention time of 4.06 min. Solvent delay for MS acquisition is set at 3 min. GC/MS parameters for liquid sample analysis are the same as those for head space analysis, except that the volume of liquid injection is 1 uL.
For B9, the “2,5-DCP product” value was “detected”.
With B10 the “2,5-DCP product” value was “detected”.
With B8 the “2,5-DCP product” value was “detected”.

Assay: Detection of 4-chloro-3-methoxy phenol product by LC-MS/MS
Format: biochemical
Conditions: purified protein
Description: The decarboxylated and chloro hydrolyzed product, 4-chloro-3-methoxy phenol (FIG. 1D), is measured using a LC-MS/MS analytical procedure. […] 10 ul is removed from the reaction mixture and mixed with 90 ul pre-chilled methanol followed by centrifugation at 14,000 rpm for 15 min at 4° C. 10 ul of the supernatant is then transferred into 170 ul ddH2O to achieve 5% methanol solution for injection. 50 ul of the prepared sample is injected into a 4000 Q Trap LC-MS/MS system for sample analysis. LC-MS/MS parameters are: Mobile Phase A, 2 mM ammonium acetate in water; Mobile Phase B, 2 mM ammonium acetate in methanol; Column, Aquasil, 100×2.1 mm, 3 μm, C18 column; Flow Rate, 0.6 ml/min. The MS/MS fragment 157/142 which is common to 4-chloro-3-methoxy phenol, 2-chloro-5-methoxy phenol, and 3-chloro-5-methoxy phenol is monitored at a retention time of 2.88 min.
For B9, the 4-chloro-3-methoxy phenol product was “detected”.
For B10, the 4-chloro-3-methoxy phenol product was “detected”.
For B8, the 4-chloro-3-methoxy phenol product was “detected”.

Assay: 14C assay with IPTG-induced recombinant E. coli cells (14CO2 capture from [14C]-carboxyl-labeled dicamba)
Conditions: E. coli cell assay, 108 sequences tested
For B9, the “decarboxylation activity of dicamba” value was “showed decarboxylation activity of dicamba”.
For B10, the “decarboxylation activity of dicamba” value was “showed decarboxylation activity of dicamba”.

Same assay, conditions: dicamba decarboxylation activity of the protein of the given SEQ ID NO
For B1, the “Enzymatic Detection level” value was “High”.
With B2 the “Enzymatic Detection level” value was “High”.
In the case of B3, the “Enzymatic Detection level” value is reported as “High”.
In the case of B4, the “Enzymatic Detection level” value is reported as “High”.
For B5, the “Enzymatic Detection level” value was “High”.
For B6, the “Enzymatic Detection level” value was “High”.
In the case of B7, the “Enzymatic Detection level” value is reported as “High”.
